Legend:
[1] = target: SARS-CoV-2 N-protein N:G215C (reduced), full-length (SARS-CoV-2) (UniProt P0DTC9); test: AUC
[2] = target: SARS-CoV-2 N-protein N:G215C (reduced), full-length (SARS-CoV-2) (UniProt P0DTC9); test: mass photometry
[3] = target: SARS-CoV-2 N-protein N:G215C* (oxidized), full-length (SARS-CoV-2) (UniProt P0DTC9); test: mass photometry
[4] = target: SARS-CoV-2 N-protein N:R203K/G204R, full-length (SARS-CoV-2) (UniProt P0DTC9); test: mass photometry
[5] = target: SARS-CoV-2 N-protein Nο (Omicron set N:P13L/Δ31–33/R203K/G204R), full-length (SARS-CoV-2) (UniProt P0DTC9); test: mass photometry
dynamic light scattering = target: the molecule itself; test: dynamic light scattering

Question: Which Kd [1] does the source give for “SARS-CoV-2 N-protein N:G215C (reduced), full-length (from UniProt P0DTC9 1-419) (natural protein)” here?
Answer: 1000 nM

Question: What about the best-fit effective RNP life-time (with SL7 RNA) [2] of the same molecule?
Answer: 231 s

Question: For “SARS-CoV-2 N-protein N:G215C* (oxidized), full-length (from UniProt P0DTC9 1-419) (natural protein)”, which best-fit effective RNP life-time (with SL7 RNA) [3] is on record?
Answer: 41.8 s

Question: For “SARS-CoV-2 N-protein N:R203K/G204R, full-length (from UniProt P0DTC9 1-419) (natural protein)”, which best-fit effective RNP life-time (with SL7 RNA) [4] is on record?
Answer: 54.6 s

Question: With “SARS-CoV-2 N-protein Nο (Omicron set N:P13L/Δ31–33/R203K/G204R), full-length (from UniProt P0DTC9 1-419) (natural protein)” as the molecule, how does the best-fit effective RNP life-time (with SL7 RNA) [5] read?
Answer: 58.5 s

B1: LRS peptide N_(210–246):G214C (peptide)
peptide: MAGNCGDAALALLLLDRLNQLESKMSGKGQQQQGQTV
Question: Does B1 bind (dynamic light scattering)?
Answer: binds

From article doi:10.1101/2025.04.26.650775, “Evolution of a fuzzy ribonucleoprotein complex in viral assembly” (bioRxiv, 2025)
